These are literature values, as cited in paper PMC3222890.

The target of data set [1] is GDI (Saccharomyces cerevisiae) (UniProt P39958).
For data set [2] the target is unchanged. The source holds these as a separate data set.
The target is the same in data set [3]. This is another data set of the same source.

Read-outs that look alike come from different tables or passages of the source.

UniProt P39958, sequence (P39958 whole entry): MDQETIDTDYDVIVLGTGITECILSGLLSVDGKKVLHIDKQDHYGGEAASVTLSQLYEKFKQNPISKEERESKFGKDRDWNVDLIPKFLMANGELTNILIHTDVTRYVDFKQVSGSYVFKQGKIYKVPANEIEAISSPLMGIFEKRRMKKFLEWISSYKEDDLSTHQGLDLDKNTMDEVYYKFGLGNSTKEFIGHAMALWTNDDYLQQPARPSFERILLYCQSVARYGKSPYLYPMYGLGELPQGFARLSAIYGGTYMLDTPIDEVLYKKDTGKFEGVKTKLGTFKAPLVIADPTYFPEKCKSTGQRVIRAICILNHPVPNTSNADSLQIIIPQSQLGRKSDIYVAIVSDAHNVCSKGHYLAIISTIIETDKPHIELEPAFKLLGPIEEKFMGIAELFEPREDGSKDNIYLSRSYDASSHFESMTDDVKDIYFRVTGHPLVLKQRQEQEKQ

By Kd is commonly meant the concentration at which binding is half-saturated. With Sec4 (from UniProt P07560), the Kd in data set [1] was 330 nM.

Consider Ypt31 (from UniProt P38555), for which the Kd in data set [2] is 18900 nM.

As for Ypt32 (from UniProt P51996), the Kd in data set [3] is 1500 nM.
